This note sets out measurements from the supplement of paper PMC9112550, “Optimization of the antimicrobial peptide Bac7 by deep mutational scanning” (BMC Biology, 2022).
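Note: peptides expressed intracellularly from a pBAD plasmid library in pooled LB shake-flask culture, induced with 0.3% L-arabinose, DNA abundance read by NGS, three biological replicates, DESeq2 with apeglm shrinkage.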

The data set deals with Escherichia coli TOP10. The experiment in a line: shrunken log2 fold change of peptide-encoding DNA abundance (4.5 h post-induction vs induction); higher = less antimicrobial activity (less host growth inhibition). The following applies: time post-induction: 4.5 h; library: site-saturation at positions 5, 18, 19, 20.
Turning to RRIRIRPPRLPRPRPRPIRKPRP, the “shrunken log2 fold change” value is -0.0303. Regarding RRIRRRPPRLPRPRPRPPYPPRP, the “shrunken log2 fold change” value worked out at 0.245.

As to RRIRHRPPRLPRPRPRPPGPPRP, the “shrunken log2 fold change” value came out at 0.196.

Consider RRIRCRPPRLPRPRPRPLRNPRP, for which the “shrunken log2 fold change” value amounted to 0.272. With RRIRRRPPRLPRPRPRPIWGPRP, the “shrunken log2 fold change” value is 0.163. Consider RRIRLRPPRLPRPRPRPDMTPRP, for which the “shrunken log2 fold change” value was -0.0167. With RRIRLRPPRLPRPRPRPTRLPRP, the “shrunken log2 fold change” value was determined as 0.432. On to RRIRVRPPRLPRPRPRPICEPRP, for which the “shrunken log2 fold change” value turned out to be 0.058. As for RRIRVRPPRLPRPRPRPFYGPRP, the “shrunken log2 fold change” value was -0.127.

Take RRIRLRPPRLPRPRPRPCCDPRP: the “shrunken log2 fold change” value is -0.139. With RRIRKRPPRLPRPRPRPERVPRP the figure was 0.281; with RRIRQRPPRLPRPRPRPTMVPRP, -0.148; with RRIRWRPPRLPRPRPRPHTWPRP, -0.134. The value for RRIRDRPPRLPRPRPRPFAAPRP was 1.62; that for RRIRLRPPRLPRPRPRPAIFPRP was -0.391; that for RRIRFRPPRLPRPRPRPLKDPRP was -0.276.

Turning to RRIRTRPPRLPRPRPRPIVQPRP, the “shrunken log2 fold change” value came to 0.0444. The value for RRIRSRPPRLPRPRPRPAYNPRP was -0.00937; that for RRIRFRPPRLPRPRPRPVMNPRP was -0.548; that for RRIRKRPPRLPRPRPRPQHDPRP was 0.202. RRIRDRPPRLPRPRPRPQVPPRP: the “shrunken log2 fold change” value is -0.0122. As for RRIRPRPPRLPRPRPRPCRDPRP, the “shrunken log2 fold change” value is 1.11. With RRIRVRPPRLPRPRPRPKPIPRP the figure was -0.0649.

Consider RRIRGRPPRLPRPRPRPHRIPRP, for which the “shrunken log2 fold change” value was found to be 0.00463.

Take RRIRTRPPRLPRPRPRPKAGPRP: the “shrunken log2 fold change” value came out at 0.768.

For the sequence RRIRWRPPRLPRPRPRPATSPRP, the “shrunken log2 fold change” value was 0.385. As to RRIRYRPPRLPRPRPRPGVNPRP, the “shrunken log2 fold change” value was -3.04. With RRIRTRPPRLPRPRPRPHMIPRP the figure was -0.138. With RRIRTRPPRLPRPRPRPFPFPRP the figure was -0.406; with RRIRGRPPRLPRPRPRPESCPRP, 1.33; with RRIRYRPPRLPRPRPRPIVCPRP, -0.134. For RRIRRRPPRLPRPRPRPITLPRP, the “shrunken log2 fold change” value was -0.0936. For the sequence RRIRIRPPRLPRPRPRPQSLPRP, the “shrunken log2 fold change” value is -0.321. For RRIRYRPPRLPRPRPRPRSMPRP, the “shrunken log2 fold change” value was -0.622.

For the sequence RRIRPRPPRLPRPRPRPGLEPRP, the “shrunken log2 fold change” value amounted to 0.195. As for RRIRLRPPRLPRPRPRPYDMPRP, the “shrunken log2 fold change” value was -0.921. As to RRIRQRPPRLPRPRPRPDWLPRP, the “shrunken log2 fold change” value is -0.102.

With RRIRRRPPRLPRPRPRPCQDPRP, the “shrunken log2 fold change” value was -0.275. As to RRIRPRPPRLPRPRPRPLLNPRP, the “shrunken log2 fold change” value is -0.224. Consider RRIRARPPRLPRPRPRPEFFPRP, for which the “shrunken log2 fold change” value came to 0.33. Turning to RRIRERPPRLPRPRPRPPPWPRP, the “shrunken log2 fold change” value amounted to 0.318. Regarding RRIRWRPPRLPRPRPRPMFAPRP, the “shrunken log2 fold change” value is 0.216. As for RRIRPRPPRLPRPRPRPNQGPRP, the “shrunken log2 fold change” value was -0.55. For RRIRERPPRLPRPRPRPEAQPRP, the “shrunken log2 fold change” value worked out at 0.227. As to RRIRARPPRLPRPRPRPLCCPRP, the “shrunken log2 fold change” value came to 0.305. With RRIRMRPPRLPRPRPRPVGKPRP the figure was 0.216; with RRIRPRPPRLPRPRPRPCGWPRP, 0.403; with RRIRMRPPRLPRPRPRPQPDPRP, 0.658. For the sequence RRIRLRPPRLPRPRPRPWLRPRP, the “shrunken log2 fold change” value was -0.0452. For RRIRFRPPRLPRPRPRPSPHPRP, the “shrunken log2 fold change” value came out at 0.0339. For the sequence RRIRLRPPRLPRPRPRPNIGPRP, the “shrunken log2 fold change” value was -0.00419.

Take RRIRIRPPRLPRPRPRPTNSPRP: the “shrunken log2 fold change” value was -0.827.

RRIRARPPRLPRPRPRPAKFPRP: the “shrunken log2 fold change” value is 0.168. With RRIRGRPPRLPRPRPRPNRFPRP the figure was 0.282; with RRIRCRPPRLPRPRPRPELTPRP, 0.0136; with RRIRTRPPRLPRPRPRPVWAPRP, 0.237.

Turning to RRIRSRPPRLPRPRPRPQQLPRP, the “shrunken log2 fold change” value is -0.0917. The value for RRIRFRPPRLPRPRPRPEQTPRP was -0.0498. Regarding RRIRLRPPRLPRPRPRPSGGPRP, the “shrunken log2 fold change” value was -0.153. For the sequence RRIRWRPPRLPRPRPRPMVVPRP, the “shrunken log2 fold change” value was 0.026. As to RRIRIRPPRLPRPRPRPVWKPRP, the “shrunken log2 fold change” value amounted to 0.154.

Turning to RRIRKRPPRLPRPRPRPSYDPRP, the “shrunken log2 fold change” value came to 0.0212. Turning to RRIRERPPRLPRPRPRPWSMPRP, the “shrunken log2 fold change” value was -0.707. RRIRYRPPRLPRPRPRPRPRPRP: the “shrunken log2 fold change” value turned out to be 0.463. For the sequence RRIRGRPPRLPRPRPRPDHFPRP, the “shrunken log2 fold change” value is -0.31. As to RRIRMRPPRLPRPRPRPVNMPRP, the “shrunken log2 fold change” value is -0.292. As for RRIRIRPPRLPRPRPRPLVDPRP, the “shrunken log2 fold change” value is 0.126. The value for RRIRHRPPRLPRPRPRPEGNPRP was -0.0642; that for RRIRYRPPRLPRPRPRPRDLPRP was -0.372; that for RRIRIRPPRLPRPRPRPPYIPRP was -0.299. On to RRIRHRPPRLPRPRPRPICKPRP, for which the “shrunken log2 fold change” value was -0.204. With RRIRQRPPRLPRPRPRPVPKPRP the figure was -0.00476. For RRIRNRPPRLPRPRPRPDAKPRP, the “shrunken log2 fold change” value is 0.162. In the case of RRIRWRPPRLPRPRPRPSDGPRP, the “shrunken log2 fold change” value was -0.785.

As for RRIRARPPRLPRPRPRPPYFPRP, the “shrunken log2 fold change” value turned out to be 0.314.

Take RRIRARPPRLPRPRPRPWRQPRP: the “shrunken log2 fold change” value was 0.0426. The value for RRIRTRPPRLPRPRPRPIQQPRP was -0.229; that for RRIRLRPPRLPRPRPRPETRPRP was 0.0057. The value for RRIRNRPPRLPRPRPRPDGSPRP was 0.0143; that for RRIRQRPPRLPRPRPRPMGGPRP was 0.0922.

For RRIRARPPRLPRPRPRPTWNPRP, the “shrunken log2 fold change” value was found to be 0.279.

Consider RRIRMRPPRLPRPRPRPRILPRP, for which the “shrunken log2 fold change” value stood at 0.0948. Turning to RRIRGRPPRLPRPRPRPTPKPRP, the “shrunken log2 fold change” value is 1.2. As to RRIRMRPPRLPRPRPRPYLPPRP, the “shrunken log2 fold change” value is -0.78.

Take RRIRNRPPRLPRPRPRPRHEPRP: the “shrunken log2 fold change” value was -0.0217. As to RRIRGRPPRLPRPRPRPIQPPRP, the “shrunken log2 fold change” value was found to be 0.46. RRIRNRPPRLPRPRPRPFCRPRP: the “shrunken log2 fold change” value was -0.223. With RRIRIRPPRLPRPRPRPNVRPRP, the “shrunken log2 fold change” value is 0.0422. As for RRIRGRPPRLPRPRPRPNQNPRP, the “shrunken log2 fold change” value was 0.4. For RRIRARPPRLPRPRPRPECSPRP, the “shrunken log2 fold change” value is 1. The value for RRIRYRPPRLPRPRPRPQKWPRP was -0.16.
